Experimental findings from publication PMC2213029 (The Journal of Experimental Medicine, 2005) are described below.

In the test the target is T1, CD45-D1D2 (597–1213) C828S (human, UniProt P08575 622-1238, C828S, selenomethionine (Sel-Met) substituted in the crystals with the phosphopeptides).
T1 sequence (looked up): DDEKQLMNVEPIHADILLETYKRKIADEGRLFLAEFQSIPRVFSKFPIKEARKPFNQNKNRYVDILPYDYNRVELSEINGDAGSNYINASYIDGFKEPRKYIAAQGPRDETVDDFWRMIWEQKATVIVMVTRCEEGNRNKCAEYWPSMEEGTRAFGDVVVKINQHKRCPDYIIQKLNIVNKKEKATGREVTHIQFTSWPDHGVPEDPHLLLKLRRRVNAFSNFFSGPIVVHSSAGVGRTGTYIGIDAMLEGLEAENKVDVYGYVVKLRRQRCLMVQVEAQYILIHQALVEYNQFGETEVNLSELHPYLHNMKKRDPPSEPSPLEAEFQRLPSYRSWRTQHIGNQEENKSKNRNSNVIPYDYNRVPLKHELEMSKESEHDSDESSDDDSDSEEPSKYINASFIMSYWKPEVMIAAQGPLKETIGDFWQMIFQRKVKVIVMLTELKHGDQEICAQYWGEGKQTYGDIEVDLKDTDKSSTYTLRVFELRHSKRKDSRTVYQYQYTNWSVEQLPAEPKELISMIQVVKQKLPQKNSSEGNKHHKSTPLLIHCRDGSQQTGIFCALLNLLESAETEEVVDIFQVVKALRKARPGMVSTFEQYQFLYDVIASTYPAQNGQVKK
As to the kind of experiment: crystal structure.

Non-standard residues stand in square brackets, D forms with d. No end group written: not given here. pY = N[C@@H](Cc1ccc(OP(=O)(O)O)cc1)C(=O)O

B1: NPTpYS phosphopeptide derived from the polyoma middle T antigen (peptide)
peptide: NPT[pY]S
B1: the binding result is on record as “binds”.

B2: CD3ζ ITAM-1 phosphopeptide (membrane proximal ITAM of the CD3ζ chain, both tyrosines phosphorylated) (peptide)
peptide: QQQQNQL[pY]NELNLGRREE[pY]DVLDKRRG
In the case of B2, the binding result is “binds”.
